Laboratory results as given in patent US20170189363A1, “GASTRIC ACID MODULATORS FOR ORAL DELIVERY OF PEPTIDES AND PROTEINS” (NOVEN PHARMACEUTICALS, INC., priority 2015, published 2017).

Experiments:
Type in all cases: in vivo
[1] = Blood glucose after intravenous ranitidine hydrochloride plus oral insulin/SNAC capsules; settings: rats
Procedure: Rats were administered ranitidine hydrochloride (10 mg/kg) intravenously one hour prior to oral dosing with capsules comprising 0.3 mg insulin/20 mg SNAC. In vivo delivery of insulin was measured indirectly by assessing blood glucose levels at periodic intervals using a glucometer. Results are shown in FIG. 1A (each line represents one treated animal). For comparison, rats were orally administered capsules comprising 0.3 mg insulin/20 mg SNAC without administration of ranitidine hydrochloride, and blood glucose levels were assessed. Results are shown in FIG. 1B (each line represents one treated animal).

[2] = Blood glucose after oral capsules of insulin/SNAC/ranitidine hydrochloride; settings: rats
Procedure: Rats were orally administered capsules comprising 0.3 mg insulin/10 mg SNAC/10 mg ranitidine hydrochloride, and blood glucose levels were measured at periodic intervals. Results are shown in FIG. 2A (each line represents one treated animal). For comparison, rats were orally administered capsules comprising 0.3 mg insulin/10 mg SNAC (i.e., without ranitidine hydrochloride), and blood glucose levels were assessed. Results are shown in FIG. 2B (each line represents one treated animal).

[3] = Blood glucose after capsule-in-capsule insulin/SNAC with ranitidine hydrochloride; settings: dogs
Procedure: In particular, a size 0 capsule containing insulin and SNAC was placed inside an empty size 00 capsule, which was placed inside a size 000 capsule, optionally containing ranitidine hydrochloride. The capsules were administered to dogs and blood glucose levels were assessed. Results are shown in FIG. 3 (♦—with ranitidine hydrochloride; ▪—without ranitidine hydrochloride).

insulin
greater: bioavailability of insulin ([1]; oral capsules 0.3 mg insulin/20 mg SNAC with i.v. ranitidine hydrochloride vs without, inferred from blood glucose) | bioavailability of insulin ([2]; oral capsules with 10 mg ranitidine hydrochloride vs without, inferred from blood glucose) | bioavailability of insulin ([3]; capsule-in-capsule with 150 mg ranitidine hydrochloride vs without, inferred from blood glucose)
lower: blood glucose levels ([1]; oral capsules 0.3 mg insulin/20 mg SNAC, ranitidine hydrochloride 10 mg/kg intravenously one hour prior, compared with no ranitidine hydrochloride, FIG. 1A vs 1B) | blood glucose levels ([2]; oral capsules 0.3 mg insulin/10 mg SNAC/10 mg ranitidine hydrochloride compared with 0.3 mg insulin/10 mg SNAC, FIG. 2A vs 2B) | blood glucose levels ([3]; capsule-in-capsule 3.6 mg insulin and 500 mg SNAC inner, 150 mg ranitidine hydrochloride outer, compared with no ranitidine hydrochloride, FIG. 3)
